For experiment [1], the target named is T1, human PD-L1^ECD-hFc protein (human, UniProt Q9NZQ7 19-239, biotinylated in the PD-1 binding ELISA (Table 3) and in the Octet assay (Table 12)).
T1 construct: The plain and the biotinylated protein are kept as one molecule; also called PD-L1-hFc; Immunogen A; not shown: human IgG Fc fragment (hFc)
The experiment in a line: ELISA, 0.123 nM mAb. As to the method:
(§1) 100 μL of the diluted recombinant proteins were added to each well of 96-well plate. The plates were sealed with plastic film and incubated at 4° C. overnight. The plates were washed twice with wash buffer (PBS+0.01% (v/v) Tween20), and incubated with blocking buffer (PBS+0.01% (v/v) Tween20+1% (w/w) BSA) at room temperature for 2 hours. The blocking buffer was aspirated away, and 100 μL of purified anti-PD-L1 antibodies were added to each well and incubated for 2 hours at 37° C. The plates were washed three times with wash buffer (PBS+0.01% (v/v) Tween20). HRP-conjugated secondary antibody (Sigma) was added to each well and incubated for 2 hours at 37° C. After the plates were washed three times with wash buffer, 100 μL TMB substrate were added to each well, and the plates were incubated for 30 minutes at room temperature. 100 μL stop solution (0.1N HCl) was added to each well to stop the reaction.
(In general: In an ELISA, binding on a coated surface is turned into a signal by an enzyme label.)

The target in experiment [2] is T2, cyno PD-L1^ECD-hFc protein (cyno, UniProt G7PSE7 19-239).
T2 construct: also called Cyno Monkey PD-L1^ECD-hFc
T2 sequence (G7PSE7 entry or part of it limits assumed): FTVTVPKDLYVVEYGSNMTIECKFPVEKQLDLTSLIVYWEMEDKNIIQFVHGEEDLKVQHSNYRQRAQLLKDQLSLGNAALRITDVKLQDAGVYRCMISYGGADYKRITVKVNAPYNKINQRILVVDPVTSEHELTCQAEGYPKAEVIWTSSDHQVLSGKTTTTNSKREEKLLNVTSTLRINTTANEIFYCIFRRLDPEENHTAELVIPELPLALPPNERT
The experiment in a line: ELISA, 0.123 nM mAb. As to the method: as §1

Experiment [3] deals with T3, hPD-L2 (human, UniProt Q9BQ51 20-219, limits assumed).
T3 construct: Bought protein
T3 sequence (looked up): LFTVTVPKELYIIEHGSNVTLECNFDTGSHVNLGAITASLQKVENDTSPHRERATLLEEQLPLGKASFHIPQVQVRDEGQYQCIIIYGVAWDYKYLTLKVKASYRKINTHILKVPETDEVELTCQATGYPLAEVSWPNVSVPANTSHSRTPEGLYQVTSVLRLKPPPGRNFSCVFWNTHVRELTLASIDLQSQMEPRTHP
Description: ELISA (numbers in Table 9). As to the method: as §1

Experiment [4] addresses T4, full length cyno PD-L1 on cells (cyno, UniProt G7PSE7 19-290).
T4 construct: also called CHO-K1-cPD-L1
The experiment in a line: FACS CHO-K1-cPD-L1, 0.14 nM mAb. As to the method: (§2) Other CHO-K1 were stably transfected with a pIRES plasmid containing the nucleic acid sequence encoding full length cyno PD-L1 to generate CHO-K1 cells stably expressing cyno PD-L1 (herein referred to as CHO-K1-cPD-L1 cells). […] The culture media was aspirated, and the cells were washed twice with HBSS (Hanks Balanced Salt Solution, Invitrogen). The cells were treated with enzyme-free cell dissociation solution (Versene solution, Invitrogen) and collected. The cells were then washed twice with HBSS, cell counts were determined, and cells were resuspended with HBSS at 2×10⁶ cells/mL. Goat serum was added to the cell suspension to a final concentration of 1%, and the cells were blocked for 30 minutes on ice and then washed twice with HBSS. The cells were collected after centrifugation and resuspended in FACS buffer (HBSS+1% BSA, v/v) at 2×10⁶ cells/mL. 100 μL of the cell suspension were then added to each well of 96-well plate. 100 μL of purified anti-PD-L1 antibodies from Example 2 were added to each well of the 96-well plate and incubated for 2 hours on ice. […] The samples were washed three times with FACS buffer, and 100 μL fixation buffer (4% paraformaldehyde v/v) were added to each well and incubated for 10 minutes. The cells were then washed twice with FACS buffer and resuspended in 100 μL FACS buffer. The mean fluorescence intensity (MFI) was determined using FACS Calibur (BD), and the results are shown in FIGS. 7-8 and in Tables 10-11.

In experiment [5] the target is T5, full length human PD-L1 on cells (human, UniProt Q9NZQ7 19-290).
T5 construct: Also used as the target of the cell-based functional assays (transfected stimulator cells; PD-L1 of the cells in the mixed lymphocyte reaction); also called CHO-K1-hPD-L1; CHOK1-hPD-L1
T5 sequence (Q9NZQ7 19-290 limits assumed): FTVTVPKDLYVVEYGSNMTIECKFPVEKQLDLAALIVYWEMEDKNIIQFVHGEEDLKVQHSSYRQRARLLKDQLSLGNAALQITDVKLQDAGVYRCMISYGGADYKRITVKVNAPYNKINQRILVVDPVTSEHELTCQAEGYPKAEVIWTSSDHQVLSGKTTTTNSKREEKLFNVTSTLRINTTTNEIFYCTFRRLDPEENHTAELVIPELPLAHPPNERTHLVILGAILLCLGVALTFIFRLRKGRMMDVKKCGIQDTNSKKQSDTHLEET
Description: FACS CHO-K1-hPD-L1, 11.11 nM mAb.

Experiment [6] deals with T4, full length cyno PD-L1 on cells. The experiment in a line: FACS CHO-K1-cPD-L1, 11.11 nM mAb. Here is the method: as §2
The target of experiment [7] is T1, human PD-L1^ECD-hFc protein. Description: ELISA, mAb concentration not given. As to the method:
as §1

For experiment [8], the target named is T3, hPD-L2. The experiment in a line: ELISA, mAb concentration not given. As to the method:
as §1

The target of experiment [9] is T5, full length human PD-L1 on cells. Description: cell-based or functional assay.
The target is the same in experiment [10]. The experiment in a line: FACS CHO-K1-hPD-L1, 1 nM mAb.
The target is the same in experiment [11]. The experiment in a line: FACS CHO-K1-hPD-L1, 10 nM mAb. Here is the method:
as §2

Experiment [12] addresses T1, human PD-L1^ECD-hFc protein. Description: ELISA receptor-ligand blocking assay: PD-L1^ECD-hFc coated on the plate, antibody titrated, blocked ligand biotinylated PD-1^ECD, HRP-streptavidin, inhibition rate (%). As to the method:
Purified PD-L1^ECD-hFc (Example 2) was diluted with PBS to a final concentration of 1.0 μg/mL, and 100 μL diluted PD-L1^ECD-hFc were added to each well of a 96-well plate that was then sealed with plastic film and incubated at 4° C. overnight. The plate was washed twice with wash buffer (PBS+0.01% (v/v) Tween 20) and incubated with blocking buffer (PBS+[…]) at room temperature for 2 hours. The blocking buffer was aspirated, and 50 μL purified anti-PD-L1 antibodies from Example 2 were added to each well of 96-well plate. […] The plate was washed three times with wash buffer (PBS+0.01% (v/v) Tween 20). 100 μL HRP-conjugated streptavidin (Sigma) were then added to each well and incubated at 37° C. for 2 hours. The plate was then washed three times with wash buffer, and 100 μL TMB substrate were added to each well. After 30 minutes of incubation at room temperature, the reaction was stopped by adding 100 μL stop solution (0.1N HCl).

T1 sequence (Q9NZQ7 19-239): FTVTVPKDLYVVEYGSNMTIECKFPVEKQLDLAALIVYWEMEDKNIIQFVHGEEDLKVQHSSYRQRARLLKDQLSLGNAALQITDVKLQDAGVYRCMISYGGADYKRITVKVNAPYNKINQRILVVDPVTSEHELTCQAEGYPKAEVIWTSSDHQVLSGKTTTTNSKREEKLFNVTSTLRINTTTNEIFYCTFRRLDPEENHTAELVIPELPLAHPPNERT
T4 sequence (G7PSE7 entry or part of it limits assumed): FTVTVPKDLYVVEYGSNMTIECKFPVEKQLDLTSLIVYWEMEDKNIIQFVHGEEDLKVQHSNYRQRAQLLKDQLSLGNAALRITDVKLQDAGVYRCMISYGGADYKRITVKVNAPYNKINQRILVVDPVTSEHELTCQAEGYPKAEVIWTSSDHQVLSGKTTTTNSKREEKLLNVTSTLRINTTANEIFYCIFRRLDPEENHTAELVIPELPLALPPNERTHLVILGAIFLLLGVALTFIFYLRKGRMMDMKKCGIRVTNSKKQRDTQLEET

B1: chimeric anti-PD-L1 antibody 78A11F6 (antibody, V domains shown)
VH: EVQLVESGGGLVQPGGSLRLSCAASGITFSSYWMSWVRQTPGKGLEWVANIKQDGSEKYYVKSVKGRFTISRDNAKNSLYLQMNSLRAEDTAVYYCVRDRAVPGTGAFDIWGQGTMVIVSS
VL: DIQMTQSPSTLSASVGDRVTITCRASQSISNWLAWYQQKPGKAPKLLIYKASSLESGVPSRFSGSGSGTEFTLTISSLQPDDFATYYCQQYDSSLFTFGQGTKLEIK
notes: Purified from hybridoma of Harbour H2L2 mice: human variable regions, rat constant regions
In the case of B1, the OD450 nm in experiment [1] is 0.84; in experiment [2], 0.91; in experiment [7], 2.71; in the experiment with hPD-L2 [8], 0.205. In addition, the binding result with hPD-L2 [3] is given as “no binding”. Further, the Mean fluorescence intensity is 38.3 in experiment [4], 210 in [5] and 142 in experiment [6].

B2: chimeric anti-PD-L1 antibody 73G11B3 (antibody, V domains shown)
VH: EVQLVESGGGLVQPGGSLRLSCVVSGFTFSSYWMSWVRQTPGKGLEWVANIKQDGSEKYYVDSVKGRLTISRDNAKNSLYLQMNSLRAEDTAVYYCVRDRAVPGTGALDIWGQGTMVTVSS
VL: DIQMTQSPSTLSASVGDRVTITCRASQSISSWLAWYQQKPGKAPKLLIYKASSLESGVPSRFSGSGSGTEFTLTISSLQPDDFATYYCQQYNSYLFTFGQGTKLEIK
notes: as for B1
Turning to B2, in [9], the “IL-2 (pg/mL), MLR donor1, 0.001 µg/mL mAb” value stood at 216 pg/mL; the “IL-2 (pg/mL), MLR donor1, 0.01 µg/mL mAb” value turned out to be 365 pg/mL; the “IL-2 (pg/mL), MLR donor1, 0.1 µg/mL mAb” value stood at 453 pg/mL; the “IL-2 (pg/mL), MLR donor1, 1 µg/mL mAb” value was found to be 426 pg/mL. The “IL-2 (pg/mL), MLR donor1, 10 µg/mL mAb” value in experiment [9] stood at 477 pg/mL. The molecule further came in with a Mean fluorescence intensity in [10] of 107. In [11], this molecule had a Mean fluorescence intensity of 213. For the same molecule, in experiment [12], the “IC50 (read off the curve)” value was about 0.4 nM.

B3: chimeric anti-PD-L1 antibody 192D9E7 (antibody, V domains shown)
VH: EVQLVESGGGLVQPGGSLRLSCAASGFTFSSYWMSWVRQAPGKGLEWVADIKQDGSEKYYVDSVKGRFTISRDNAKNSLYLQMNSLRAEDTAVYYCTRDKPHWGGVMDAWGQGTSVTVSS
VL: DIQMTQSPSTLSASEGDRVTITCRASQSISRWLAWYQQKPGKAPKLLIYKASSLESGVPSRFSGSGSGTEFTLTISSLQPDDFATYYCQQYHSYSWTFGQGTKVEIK
notes: as for B1
For the molecule B3, in [9], the “IL-2 (pg/mL), MLR donor1, 0.001 µg/mL mAb” value was 211 pg/mL; the “IL-2 (pg/mL), MLR donor1, 0.01 µg/mL mAb” value is 371 pg/mL; the “IL-2 (pg/mL), MLR donor1, 0.1 µg/mL mAb” value was 473 pg/mL; the “IL-2 (pg/mL), MLR donor1, 1 µg/mL mAb” value was 461 pg/mL. The “IL-2 (pg/mL), MLR donor1, 10 µg/mL mAb” value in experiment [9] turned out to be 488 pg/mL. This molecule displayed a Mean fluorescence intensity in [10] of 97.6. This molecule displayed a Mean fluorescence intensity in [11] of 134.

B4: chimeric anti-PD-L1 antibody 73D3G2 (antibody, V domains shown)
VH: EVQLVESGGGLVQPGGSLRLSCAASGFTFNTYWMNWVRQAPGRGLEWVANIKQDGGEKYYVDSVKGRFTISRDNAKNSLYLQMNSLRAEDTAMYYCARDGRSWYPDAFDIWGQGTVVTVSS
VL: DIQMTQSPSTLSASVGDRVTITCRASQSISTWLAWYQQKLGKAPKLLIYEVSILESGVPSRFSGSGSGTEFTLTISSLQPDDFATYYCQQYHSFSSFGGGTRVEIK
notes: as for B1
For the molecule B4, the OD450 nm in experiment [1] was 0.72; in experiment [2], 0.72; in experiment [7] it was 2.75; with hPD-L2 [8], 0.156. The binding result with hPD-L2 [3] was “no binding”. Also, the Mean fluorescence intensity was found to be 44.3 in [4], 114 in experiment [5] and 136 in experiment [6]. In addition, the “IC50 (read off the curve)” value in [12] is about 0.5 nM.

B5: chimeric anti-PD-L1 antibody 105C5D7 (antibody, V domains shown)
VH: EVQLVESGGGLVQPGGSLRLSCAASGFTFSSYWMSWVRQAPGKGLEWVANIKQDGNEKYYVDSVKGRFTISRDNAKNSLYLQMNSLRAEDTAVYYCARNIKWGDAFDIWGQGTMVTVSS
VL: DIQMTQSPSSLSASVGDRVTITCRASQSISSYLNWYQQKPGKAPKLLIYAASSLQSGVPSRFSGSGSGTDFTLTISSLQPEDFAIYSCQQSYSIPLTFGGGTKVEIK
notes: as for B1
On to B5, for which the OD450 nm was 0.67 in experiment [1], 0.67 in experiment [2], 2.64 in [7] and 0.214 in the experiment with hPD-L2 [8]. Further, the binding result with hPD-L2 [3] is on record as “no binding”. Further, the Mean fluorescence intensity in experiment [4] was 42; in experiment [5] it was 201; in experiment [6], 136.

B6: chimeric anti-PD-L1 antibody 127D2F3 (antibody, V domains shown)
VH: EVQLVESGGGLVQPGGSLRLSCVASGFTFSSYWMSWVRQAPGKGLEWVANIKQDGSEKYYVDSVKGRLTISRDNAKNSLYLQMKSLRAEDTAVYYCARDPIYSSYFDYWGQGILVTVSS
VL: DIQMTQSPSSLSASVGDRVTITCRASQSISNYLNWYQQKPGKAPKLLIYAASSLQSGVPSRFSGSGSGTDFTLTISSLQPEDFAAYYCQQSYGIPFTFGPGTKVDIK
notes: as for B1
For the molecule B6, in [9], the “IL-2 (pg/mL), MLR donor1, 0.001 µg/mL mAb” value stood at 226 pg/mL; the “IL-2 (pg/mL), MLR donor1, 0.01 µg/mL mAb” value came out at 274 pg/mL; the “IL-2 (pg/mL), MLR donor1, 0.1 µg/mL mAb” value is 429 pg/mL; the “IL-2 (pg/mL), MLR donor1, 1 µg/mL mAb” value came to 497 pg/mL. The “IL-2 (pg/mL), MLR donor1, 10 µg/mL mAb” value in experiment [9] was 440 pg/mL. In addition, the Mean fluorescence intensity in experiment [10] worked out at 88.5. In experiment [11], this molecule showed a Mean fluorescence intensity of 235. Also, in experiment [12], the “IC50 (read off the curve)” value was about 0.3 nM.

The record behind these values is US20190010233A1 (JIANGSU HYAMAB PHARMACEUTICAL, published 2019).
